Results: paper PMC5064454, “Wild-type p53 binds to MYC promoter G-quadruplex”

B1: P1-22 (dsDNA)
DNA 1: GAGACATGCCTAGACATGCCTC
DNA 2: GAGGCATGTCTAGGCATGTCTC
B2: Pu52 (structured_DNA)
DNA: TTGGGGCGCTTATGGGGAGGGTGGGGAGGGTGGGGAAGGTGGGGAGGAGACT
B3: P1-40 (dsDNA)
DNA 1: GATCGATAAGAGACATGCCTAGACATGCCTCTTGATATCG
DNA 2: CGATATCAAGAGGCATGTCTAGGCATGTCTCTTATCGATC
B4: P1-30 (dsDNA)
DNA 1: GTAAGAGACATGCCTAGACATGCCTCATCG
DNA 2: CGATGAGGCATGTCTAGGCATGTCTCTTAC
B5: P1-50 (dsDNA)
DNA 1: GACGGTATCGATAAGAGACATGCCTAGACATGCCTCTTGATATCGAATTC
DNA 2: GAATTCGATATCAAGAGGCATGTCTAGGCATGTCTCTTATCGATACCGTC

Tests used:
[1] = biological target: p53CD (GSTp53CD, central DBD) (Homo sapiens, UniProt P04637 94-312); experiment: EMSA; 50 mM KCl; EMSA: 5 mM Tris pH 7.6, 0.5 mM EDTA, 0.01% Triton X-100, 50 mM KCl, 0.5 mM DTT, on ice 20 min (30 min for plasmids); oligo EMSA with 50 ng BSA and 2.5-20 ng pBSK/EcoRV competitor; settings: protein: recombinant; tags: GST; chain copies: 4; label: 5' 32P; blunt
[2] = biological target: T1, wtp53 (full-length wild-type p53) (Homo sapiens, UniProt P04637 1-393); experiment: as above; settings: protein: recombinant, chain copies: 4, label: 5' 32P
p53CT (GSTp53CT) = p53CT (GSTp53CT) (Homo sapiens, UniProt P04637 320-393); experiment: as above; settings: protein: recombinant; tags: GST; chain copies: 4; label: 5' 32P; parallel G4, 1:2:1 loops, annealed in 50 mM KCl
[3] = biological target: T1, wtp53 (full-length wild-type p53); experiment: EMSA; 50 mM KCl; comparable to P1-50; EMSA: 5 mM Tris pH 7.6, 0.5 mM EDTA, 0.01% Triton X-100, 50 mM KCl, 0.5 mM DTT, on ice 20 min (30 min for plasmids); oligo EMSA with 50 ng BSA and 2.5-20 ng pBSK/EcoRV competitor; settings: protein: recombinant; chain copies: 4; label: 5' 32P; parallel G4, 1:2:1 loops, annealed in 50 mM KCl
p53CΔ30 = p53CΔ30 (Homo sapiens, UniProt P04637 1-363); experiment: EMSA; 50 mM KCl; EMSA: 5 mM Tris pH 7.6, 0.5 mM EDTA, 0.01% Triton X-100, 50 mM KCl, 0.5 mM DTT, on ice 20 min (30 min for plasmids); oligo EMSA with 50 ng BSA and 2.5-20 ng pBSK/EcoRV competitor; settings: protein: recombinant; chain copies: 4; label: 5' 32P; blunt
[4] = biological target: T1, wtp53 (full-length wild-type p53); experiment: EMSA; 50 mM KCl; comparable to P1-22, lower than Pu52; EMSA: 5 mM Tris pH 7.6, 0.5 mM EDTA, 0.01% Triton X-100, 50 mM KCl, 0.5 mM DTT, on ice 20 min (30 min for plasmids); oligo EMSA with 50 ng BSA and 2.5-20 ng pBSK/EcoRV competitor; settings: protein: recombinant; chain copies: 4; label: 5' 32P; parallel G4, 1:2:1 loops, annealed in 50 mM KCl
[5] = biological target: T1, wtp53 (full-length wild-type p53); experiment: EMSA; 50 mM KCl; comparable to P1-30, lower than Pu52; EMSA: 5 mM Tris pH 7.6, 0.5 mM EDTA, 0.01% Triton X-100, 50 mM KCl, 0.5 mM DTT, on ice 20 min (30 min for plasmids); oligo EMSA with 50 ng BSA and 2.5-20 ng pBSK/EcoRV competitor; settings: protein: recombinant; chain copies: 4; label: 5' 32P; parallel G4, annealed in 50 mM KCl

T1 sequence (P04637 whole entry): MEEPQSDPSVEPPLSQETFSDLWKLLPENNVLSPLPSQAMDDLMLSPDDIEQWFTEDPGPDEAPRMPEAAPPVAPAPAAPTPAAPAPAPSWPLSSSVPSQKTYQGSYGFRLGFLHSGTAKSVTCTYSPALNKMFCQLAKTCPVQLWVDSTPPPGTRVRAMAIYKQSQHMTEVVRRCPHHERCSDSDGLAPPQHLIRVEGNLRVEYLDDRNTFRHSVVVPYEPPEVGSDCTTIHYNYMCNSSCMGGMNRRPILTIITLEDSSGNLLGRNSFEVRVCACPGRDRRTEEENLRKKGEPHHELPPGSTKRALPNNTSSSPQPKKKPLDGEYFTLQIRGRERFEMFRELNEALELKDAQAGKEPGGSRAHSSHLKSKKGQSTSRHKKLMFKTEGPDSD
Sequence of p53CD (GSTp53CD, central DBD) (P04637 94-312): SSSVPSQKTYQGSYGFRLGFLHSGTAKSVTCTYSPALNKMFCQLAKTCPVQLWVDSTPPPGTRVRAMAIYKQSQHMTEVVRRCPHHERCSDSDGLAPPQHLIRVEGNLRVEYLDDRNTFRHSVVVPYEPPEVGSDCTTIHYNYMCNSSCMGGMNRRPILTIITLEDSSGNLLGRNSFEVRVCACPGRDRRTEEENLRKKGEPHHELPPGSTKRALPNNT
Sequence of p53CΔ30 (P04637 1-363, stated change not applied): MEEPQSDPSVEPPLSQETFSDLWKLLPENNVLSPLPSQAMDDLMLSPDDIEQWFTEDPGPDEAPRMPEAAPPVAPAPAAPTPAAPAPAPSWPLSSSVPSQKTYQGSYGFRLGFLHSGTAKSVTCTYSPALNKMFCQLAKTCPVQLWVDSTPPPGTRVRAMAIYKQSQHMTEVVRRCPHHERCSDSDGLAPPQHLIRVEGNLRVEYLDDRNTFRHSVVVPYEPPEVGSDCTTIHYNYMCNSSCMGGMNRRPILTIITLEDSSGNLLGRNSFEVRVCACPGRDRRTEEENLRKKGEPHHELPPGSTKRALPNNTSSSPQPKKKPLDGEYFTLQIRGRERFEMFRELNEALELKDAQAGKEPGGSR
Sequence of p53CT (GSTp53CT) (P04637 320-393): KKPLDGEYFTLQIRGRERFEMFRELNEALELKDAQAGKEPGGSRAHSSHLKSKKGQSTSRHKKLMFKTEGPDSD

| Binder | binding result [1] | binding result ([2]; blunt) | also measured |
| --- | --- | --- | --- |
| B1 | binds | binds |  |
| AAAAAAAAAAAAAAAAAAAAAAAAAAAAAAAAAAAAAAAAAAAAAAAAAA (ssDNA) [A50] |  |  | binding result [2]: no binding |
| B2 |  |  | binding result (p53CT (GSTp53CT)): binds; binding result [3]: binds |
| B3 | binds | binds | binding result (p53CΔ30): binds |
| B4 | binds | binds |  |
| B5 | binds | binds |  |
| TGAGGGTGGGGAGGGTGGGGAA (structured_DNA) [Pu22] |  |  | binding result [4]: binds |
| AAAAAAAAAAAAAAAAAAAAAAAAA (ssDNA) [A25] |  |  | binding result [2]: no binding |
| TGGGGAGGGTGGGGAGGGTGGGGAAGGTGGGGA (structured_DNA) [Pu33] |  |  | binding result [5]: binds |
